Results reported in publication doi:10.1101/2023.10.19.563203.
Like-named read-outs stand apart in the source and are kept apart here.

Assays:
fibrin (human) [1] = biological target: fibrin (human) (UniProt P02679); test: radioligand binding
fibrin (human) [2] = biological target: fibrin (human) (UniProt P02679); test: co-sedimentation
fibrin (human) [3] = biological target: fibrin (human) (UniProt P02679); test: depletion on clotting, ELISA of plasma against the serum made from it
fibrin (human) [4] = biological target: fibrin (human) (UniProt P02679); test: co-sedimentation; remark: listed apart in the source

| Substance | Kd (fibrin (human) [1]) | binding at 75 mM NaCl as percent of that at 20 mM NaCl (fibrin (human) [1]) | percent of input bound (500,000 cpm/well) (fibrin (human) [1]) | percent of input bound at saturation (input 3.5 μg) (fibrin (human) [1]) | fold increase of percent bound, enhanced against normal clots, at 140 mM NaCl (fibrin (human) [2]) | percent bound after 16 h, after 5 M urea wash (Table 1) (fibrin (human) [2]) | percent bound at 30 min, after 5 M urea wash (fibrin (human) [2]) | percent bound at 30 min, non-denaturing wash (fibrin (human) [2]) | percent bound at 96 min, after 5 M urea wash (fibrin (human) [2]) | percent bound at 96 min, non-denaturing wash (fibrin (human) [2]) | percent bound at 960 min, after 5 M urea wash (fibrin (human) [2]) | percent bound to enhanced plasma clots, 40 min, HEPES-½-saline wash (fibrin (human) [2]) | percent bound to fibrin-only-clots, HEPES-½-saline wash (fibrin (human) [2]) | percent bound to plasma clots at 70 mM salt (fibrin (human) [2]) | percent of the plasma level lost in the serum (healthy volunteer) (fibrin (human) [3]) | percent bound at 96 min, non-denaturing wash (fibrin (human) [4]) |
| --- | --- | --- | --- | --- | --- | --- | --- | --- | --- | --- | --- | --- | --- | --- | --- | --- |
| factor H (from UniProt P08603 19-1231) (natural protein) | 0.055 nM | < 50% | 1.7% | 0.1% | 6 fold | 30% | 13% | 22% | 18% | 26% | 32.5% | 21.5% | 19% | 21.5% | 38% | 25% |
| plasminogen (natural protein) | – | – | – | – | – | 31% | – | – | – | – | – | – | – | – | – | – |
